This is an account of results in US20240368668A1, “SUBSTRATES AND BIOMARKERS OF ADAMTS7” (The Broad Institute, Inc., priority 2021, published 2024).

Square brackets hold non-standard residues; d marks the D form. Ends that are not written are not given here.

For this experiment, the target named is T1, mouse ADAMTS7 (Mus musculus, UniProt Q68SA9, E373Q).
T1 construct: Full-length mouse Adamts7 1-1857 (Uniprot Q68SA9, WT or E373Q catalytic mutant); expressed in transfected cells; host or cells: Human Coronary Artery Smooth Muscle Cells (HCA-SMC, Lonza), adenovirus 50 MOI
T1 sequence (Q68SA9 221-1657 E373Q): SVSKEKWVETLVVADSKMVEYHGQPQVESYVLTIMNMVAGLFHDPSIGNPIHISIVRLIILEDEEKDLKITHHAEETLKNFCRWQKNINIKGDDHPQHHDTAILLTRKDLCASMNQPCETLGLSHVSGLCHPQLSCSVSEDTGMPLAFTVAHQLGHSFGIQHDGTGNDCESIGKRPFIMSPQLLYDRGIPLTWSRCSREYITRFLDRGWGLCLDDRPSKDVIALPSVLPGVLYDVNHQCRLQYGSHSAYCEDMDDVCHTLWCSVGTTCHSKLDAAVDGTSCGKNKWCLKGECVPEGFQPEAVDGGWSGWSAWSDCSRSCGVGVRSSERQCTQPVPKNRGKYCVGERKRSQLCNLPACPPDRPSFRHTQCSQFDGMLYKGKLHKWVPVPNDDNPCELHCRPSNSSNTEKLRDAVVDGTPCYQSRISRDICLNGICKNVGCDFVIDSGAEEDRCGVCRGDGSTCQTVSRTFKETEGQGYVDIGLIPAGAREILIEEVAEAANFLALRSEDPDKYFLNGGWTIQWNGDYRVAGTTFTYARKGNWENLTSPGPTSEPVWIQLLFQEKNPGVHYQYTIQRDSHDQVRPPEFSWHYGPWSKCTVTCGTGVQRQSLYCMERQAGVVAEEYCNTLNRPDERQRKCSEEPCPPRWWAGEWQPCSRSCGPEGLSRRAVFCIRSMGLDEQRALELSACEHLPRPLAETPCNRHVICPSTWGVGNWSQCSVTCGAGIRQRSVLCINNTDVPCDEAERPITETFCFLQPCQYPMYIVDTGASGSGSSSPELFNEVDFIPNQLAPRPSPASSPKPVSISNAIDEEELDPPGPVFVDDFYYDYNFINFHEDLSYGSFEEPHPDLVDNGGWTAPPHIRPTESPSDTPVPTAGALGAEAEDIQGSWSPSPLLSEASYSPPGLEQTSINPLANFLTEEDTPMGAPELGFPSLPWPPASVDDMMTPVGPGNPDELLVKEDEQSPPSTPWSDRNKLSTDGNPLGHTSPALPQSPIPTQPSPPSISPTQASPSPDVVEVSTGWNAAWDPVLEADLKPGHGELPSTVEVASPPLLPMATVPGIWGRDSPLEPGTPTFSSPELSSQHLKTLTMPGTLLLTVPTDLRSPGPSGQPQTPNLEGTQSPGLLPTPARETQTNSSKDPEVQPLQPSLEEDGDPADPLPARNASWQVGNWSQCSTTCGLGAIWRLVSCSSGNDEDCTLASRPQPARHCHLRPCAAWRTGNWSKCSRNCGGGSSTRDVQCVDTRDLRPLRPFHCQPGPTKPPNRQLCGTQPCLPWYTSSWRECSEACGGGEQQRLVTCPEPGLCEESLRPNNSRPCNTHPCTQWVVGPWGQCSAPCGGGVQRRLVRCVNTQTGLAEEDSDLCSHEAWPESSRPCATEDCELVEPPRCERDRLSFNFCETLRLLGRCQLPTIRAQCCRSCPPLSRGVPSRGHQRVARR
The experiment is described as follows: TMT10 TAILS N-terminomics, HUVEC experiment (process replicates, trypsin/AspN digest). Conditions: HUVEC TAILS HC; log fold change of N-terminal peptide, Ad-mADAMTS7 EQ over Luc. The format is cell-based, human. Put shortly:
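Full-length mouse ADAMTS7 (WT or E373Q mutant, C-terminal 3xFLAG) or luciferase was transduced via adenovirus, 50 MOI, into HCA-SMC (SMC1, SMC2) or HUVEC. SMC1: pooled media, technical triplicates 400 ug; SMC2: process triplicates 300 ug; HUVEC: process triplicates 200 ug, bFGF2 10 ng/ml.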
Consider “ECM1_108 (QEAVPLQK; listed as Homo sapiens)”, for which the logFC.mEQ.over.Luc is on record as 0.09.

“EFEMP1_125_ (VAGPEMQTGR; listed as Homo sapiens)” displayed a logFC.mEQ.over.Luc of −0.11. As for “ERAP2_718 (ISENLKR; listed as Homo sapiens)”, the figure is 0.64; as for “EWSR1_87 (YSQPVQGYGTGAY; listed as Homo sapiens)”, −0.05; as for “FN1_34 ([code q]QMVQPQSPVAVSQSKPGCY; not fully specified (residue 3); listed as Homo sapiens)”, −0.06. Consider “FN1_35 ([code q]MVQPQSPVAVSQSKPGCY; not fully specified (residue 2); listed as Homo sapiens)”, for which the logFC.mEQ.over.Luc is −0.27. The value for “FN1_293 (VYQPQPHPQPPPYGHCVT; listed as Homo sapiens)” was −0.29; that for “FN1_607 (SSSGPVEVFIT; listed as Homo sapiens)” was −0.40; that for “FN1_1144 (TPGVEYVYTIQVLR; listed as Homo sapiens)” was −0.19.

“FN1_1780 (LQGLRPGSEYTVSVVALH; listed as Homo sapiens)” registered a logFC.mEQ.over.Luc of −0.47.

In turn, “FN1_1805 (LIGTQSTAIPAPT; listed as Homo sapiens)” displayed a logFC.mEQ.over.Luc of 0.05. As for “FN1_2113 (FVTHPGY; listed as Homo sapiens)”, the figure is −0.62; as for “FSTL1_290 (LQKHQETA; listed as Homo sapiens)”, −0.24; as for “LOX_125 (FQAGYSTSR; listed as Homo sapiens)”, 0.24.
